From the supplement of paper PMC10126150
± gives the standard deviation of the averaged measurements.

System: ATP
Experiment: switch fluorescence ratio, 500 uM ATP over buffer (Cy3 cluster intensity, sum of 5 cycles each) (fold (ratio)); higher = stronger signal-on switching upon ATP binding; sequences stand for … in TCGTCGGCAGCGTCAGATGTGTATAAGAGACAGTTTTTTTTTTTTTTTTTTTTTTTTT…TC
Details: aptamer strand: ATP DNA aptamer (quencher-CACCTGGGGGAGTATTGCGGAGGAAGG + anchor), 100 nM annealed; ATP concentration: 500 uM
Method in brief: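 Values give the fluorescence ratio for each switch-domain sequence, averaged from per-cluster ratios of summed target-cycle to summed buffer-cycle Cy3 intensity. The Cy3-labelled switching-strand clusters sat on a modified Illumina MiSeq flow-cell, were annealed to 100 nM quencher-labelled ATP aptamer, and were imaged in selection buffer, then after 15 min with 500 uM ATP at 22 °C. Five cycles ran with NaOH stripping and re-annealing between them, and clusters outside 100-1000 RFU were excluded.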
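Note: ATP exposure 15 min at 22 °C before imaging.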

Sequence | switch fluorescence ratio
GGGGGCCTTA | 1.01 ± 0.047
GCTGTCTATC | 1.01 ± 0.027
GCATAAGGGC | 0.959 ± 0.033
CGGGAACGGT | 1.01 ± 0.026
GCGAAAAAGA | 0.98 ± 0.031
TATCGTTGTA | 0.93881 ± 0.00024
TGACGCATAG | 1.7 ± 0.12
GGGCCCATA | 0.982 ± 0.028
TTAAGACTTC | 1.02 ± 0.041
TTTTTTTTAC | 1.04 ± 0.029
TTTATGCAGC | 1.12 ± 0.16
GGGGGACTTT | 1.08 ± 0.08
GCCAGTAAGT | 0.994 ± 0.039
TCAGGGACTT | 0.9845 ± 0.0077
TTGTCGTCAC | 1.01 ± 0.037
TGACATTATA | 1.01 ± 0.032
TGGGTTAGAT | 0.976 ± 0.025
AAATAAGTGA | 0.979 ± 0.013
GAATATTTAG | 0.958 ± 0.015
TAGAGTGGGG | 0.994 ± 0.023
CGAACCGGCG | 1.03 ± 0.017
TAGATAATGC | 1.075 ± 0.0049
TACCACGGGG | 1.04 ± 0.019
TGCTGTCGGC | 1.03 ± 0.029
TCGGGGGGG | 1.01 ± 0.016

Sequence | switch fluorescence ratio
TAATCGGGAA | 1 ± 0.017
TGTGGCAACG | 0.974 ± 0.032
ATTTTAGAGC | 1.05 ± 0.038
CCATTGGGTT | 1.02 ± 0.031
CATTTCTTG | 0.985 ± 0.029
CATAGGTTTT | 1.03 ± 0.066
AGGTCAGAGA | 1 ± 0.028
TCGGTGTCTA | 0.985 ± 0.02
ATGCCCGTG | 0.985 ± 0.014
TATTTGTGCG | 0.988 ± 0.035
CATTTATTTT | 1.01 ± 0.044
ATTAAAGGGC | 0.992 ± 0.013
TATGGAGAGG | 0.984 ± 0.015
GGTATAAGAT | 1.01 ± 0.013
AGGGGGCGTT | 1.02 ± 0.042
TGATGGGATG | 1.01 ± 0.038
CCCGGAGGCA | 1.057 ± 0.004
ATCGAGCCGG | 0.98 ± 0.049
CGGTTTTACT | 1.04 ± 0.021
TTGCCATGTT | 0.978 ± 0.036
GGGTACGCCG | 0.934 ± 0.025
ACATGACGGG | 1.06 ± 0.015
GTCGTGGTTT | 0.982 ± 0.037
GGAATTACCG | 1.031 ± 0.0025
TCTTGGTGT | 0.9898 ± 0.0088

Sequence | switch fluorescence ratio
AGGGGGTACG | 1.01 ± 0.035
ACCACCAGAA | 1.13 ± 0.02
TAAACTGACG | 1.03 ± 0.051
TTAGTAAAGG | 1.01 ± 0.041
CAGGGAGGAC | 1.01 ± 0.013
TGACGGTGTG | 0.973 ± 0.02
GCTGGAATAT | 1 ± 0.039
AAAAGAGGTG | 1.08 ± 0.034
CGTCTGTGGG | 0.9844 ± 0.0041
AGGGGGCGAT | 1.01 ± 0.039
CGGGACCGGA | 1.02 ± 0.073
GCCCCATTTT | 1.01 ± 0.024
AATAAGGATA | 1.01 ± 0.026
TCGTGTATAT | 1 ± 0.027
GCTGGGGAAA | 0.996 ± 0.032
AAAACACAGA | 1.15 ± 0.14
GCCGCGTATC | 1.65 ± 0.12
TGCATTTAGG | 1.02 ± 0.032
TTGCTTGAGA | 0.996 ± 0.028
GGCATTAATT | 1.01 ± 0.048
AAAAAGGCTA | 1.03 ± 0.017
TGTTGCTGGG | 1 ± 0.026
AGGGTATCAG | 1.01 ± 0.039
GTAGGGGCCC | 1.02 ± 0.032
GGTAAACGGA | 1.02 ± 0.044

Sequence | switch fluorescence ratio
TGGGCTAATT | 1.02 ± 0.04
GGTGTGTTTT | 0.981 ± 0.048
TGCCAGGAGT | 1.05 ± 0.014
AGCTGCATG | 0.997 ± 0.024
CAGGGCCCTG | 0.995 ± 0.056
TATAGGGAAA | 1.09 ± 0.11
TTTCCTTTGG | 1.01 ± 0.032
TCTTTAATAA | 1 ± 0.039
GTTATTGTTT | 0.983 ± 0.041
TGGGAGGCAT | 1.01 ± 0.027
GCTCGGCCCG | 1.04 ± 0.061
ATTATGCTGG | 0.994 ± 0.026
GAGACTTAGA | 1.007 ± 0.0038
AATCGTAGTG | 0.9895 ± 0.0071
CGTCACTAAT | 1.21 ± 0.25
TTGCGCCTTT | 1.03 ± 0.0099
AGTATAGGGG | 1.006 ± 0.007
TACGGGGCTG | 1.01 ± 0.11
GAAGTACGTC | 1.23 ± 0.18
TATTTTTT | 1.02 ± 0.027
TTGGTTGAAG | 1.02 ± 0.013
TTTTCAAATC | 1.016 ± 0.0075
TTGAAGTCGT | 0.988 ± 0.02
GGGATGGGAT | 0.978 ± 0.037
ATGGACGTTT | 0.967 ± 0.048

Sequence | switch fluorescence ratio
ATGGGGTCCA | 0.976 ± 0.042
AACAAGTATG | 1 ± 0.044
TGAAGGATAC | 1.28 ± 0.23
CGGGGTGGGT | 0.978 ± 0.028
GACTATGAGG | 1.02 ± 0.095
GCAAGATTTC | 1.04 ± 0.013
AAGGGGTCTT | 0.981 ± 0.027
AATGTATGGG | 0.99 ± 0.058
TAGATATGTA | 1.02 ± 0.043
ACTTTAATTG | 1.002 ± 0.0014
AATAAGTGGT | 0.989 ± 0.023
GAGCGCCCGT | 1.01 ± 0.0017
TGGATTTGTC | 0.99 ± 0.024
TTGATTGTGG | 1.03 ± 0.059
GGTTTGTTAT | 1 ± 0.014
TTTTATAGAA | 1.0092 ± 0.00051
GGTCCGGGCT | 1 ± 0.02
AGGTTTAAAC | 1.06 ± 0.063
TTGGGGCCTC | 1 ± 0.033
CCACAAGGGG | 1.02 ± 0.019
ACCACGGGCG | 1.09 ± 0.018
CGTGGGGGTC | 1.01 ± 0.013
ATAATGACGT | 1.01 ± 0.049
AATTAATAAG | 1.011 ± 0.0076
ATTAAGACAG | 0.973 ± 0.032

Sequence | switch fluorescence ratio
TCCGGGGGCA | 1.59 ± 0.027
TTGGGACGGA | 1.01 ± 0.034
GGTTGCAGTC | 0.946 ± 0.025
TGTTGGGGCT | 0.999 ± 0.04
TTGCAGGTTT | 1.11 ± 0.18
GGGTTTGAGC | 0.981 ± 0.033
TGCGTCAGCC | 1.04 ± 0.12
AATCGGTACT | 1.01 ± 0.038
CATGAATAG | 0.994 ± 0.011
TTTGGGTGCA | 0.987 ± 0.038
GTAGAAAGTT | 0.984 ± 0.0028
CCTGTAATGT | 1.12 ± 0.042
TTAAAGCTGG | 0.978 ± 0.017
AAATTACATT | 1.02 ± 0.021
CAGGGGTTTG | 1 ± 0.051
AATCCTTAAT | 1.007 ± 0.0051
TTCATTTGAG | 0.995 ± 0.021
TGAGGTACCG | 1.0235 ± 0.00091
CTCGCTCGTT | 1.03 ± 0.018
ATGCGAATCG | 0.99 ± 0.038
GGTTGCTCGT | 1.008 ± 0.0092
TGCTCTTAGT | 1.04 ± 0.079
GGGTTGTCCG | 1.05 ± 0.07
GCCCTGTATT | 1.015 ± 0.0048
CTCTGGATTT | 0.97272 ± 0.00011

Sequence | switch fluorescence ratio
AGCAACATAA | 1.13 ± 0.022
GAATAAAGAG | 0.966 ± 0.034
TTGGCATGGC | 1.04 ± 0.026
CGAGAACTGG | 1.09 ± 0.14
GCAAATATTG | 1.01 ± 0.018
AATGGGTGAT | 0.9826 ± 0.0024
TTGGCATGTC | 1.06 ± 0.041
TACCAATTAA | 1.01 ± 0.026
CTGTGGGAAG | 0.995 ± 0.056
AGATTTACTT | 0.985 ± 0.014
GTTGGTTAGC | 1.02 ± 0.035
ATTGATGTA | 1.0136 ± 0.00015
ACTGGGGGGG | 0.995 ± 0.03
GGAGTTGGAT | 0.98205 ± 0.00015
CCGATAGATG | 1.065 ± 0.0047
ATTGGGCTTC | 1.01 ± 0.015
CCGAATTTT | 1.02 ± 0.037
GGAGACTGGT | 1.02 ± 0.063
AGTTGTGCCT | 1.015 ± 0.0036
AACTATATGG | 1.046 ± 0.0081
CGTGCTAGTC | 1.04 ± 0.055
TTGGTAAGGG | 1.03 ± 0.011
CGGAGGGGCC | 1.02 ± 0.033
AAGTTGGATA | 0.993 ± 0.019
GGTGTAGGGA | 0.992 ± 0.013

Sequence | switch fluorescence ratio
GGTGTTAGTG | 0.977 ± 0.023
GGGGTTGGTA | 1.005 ± 0.006
TAATAGGGGG | 1.02 ± 0.035
TGGGGTAGCC | 0.932 ± 0.029
TTAATTGCTT | 1.01 ± 0.043
GCTTTTTGC | 0.951 ± 0.065
GGTTATGGTG | 1.02 ± 0.02
ATTTTTGTGA | 0.98 ± 0.013
TTGAATATGG | 1.01 ± 0.021
GGGTGTTTGT | 1 ± 0.018
AGAAAAACAT | 1.034 ± 0.0073
TTTAGCTAGG | 1.01 ± 0.033
GGGAAGGGTA | 1 ± 0.033
GCTAGCTGGT | 0.989 ± 0.021
TTGGACGGGA | 1.29 ± 0.47
ATGAGTCATC | 0.981 ± 0.034
TACGAGAGCC | 1.04 ± 0.037
GGAGGAAATT | 1.01 ± 0.082
GTGAAAGCGT | 0.961 ± 0.016
GCTCGAGTTG | 0.9967 ± 0.0094
CTTTGGGGAT | 1.05 ± 0.12
GGTCATAGGG | 0.958 ± 0.022
TTTGGATCAG | 1.01 ± 0.02
AGTGAGCTGA | 0.9769 ± 0.0069
CAGTTGCCAG | 0.953 ± 0.019
